Substrate in data set [1]: O=C(O)CCC(=O)C(=O)O
The data set can be described thus: purified protein. In kind it is biochemical, Homo sapiens. As to conditions: co-substrate L-Orn, 60 nM enzyme, 50 mM Hepes, pH 8.0, 150 mM NaCl, 100 μM PLP, 25 °C.

Substrate in data set [2]: NCCC[C@H](N)C(=O)O
In words: purified protein. As to conditions: co-substrate α-KG, 60 nM enzyme, 50 mM Hepes, pH 8.0, 150 mM NaCl, 100 μM PLP, 25 °C.

B1: hOAT (human ornithine δ-aminotransferase) (Homo sapiens; R217A) (protein)
chain: TSVATKKTVQGPPTSDDIFEREYKYGAHNYHPLPVALERGKGIYLWDVEGRKYFDFLSSYSAVNQGHCHPKIVNALKSQVDKLTLTSRAFYNNVLGEYEEYITKLFNYHKVLPMNTGVEAGETACKLARKWGYTVKGIQKYKAKIVFAAGNFWGRTLSAISSSTDPTSYDGFGPFMPGFDIIPYNDLPALEAALQDPNVAAFMVEPIQGEAGVVVPDPGYLMGVRELCTRHQVLFIADEIQTGLARTGRWLAVDYENVRPDIVLLGKALSGGLYPVSAVLCDDDIMLTIKPGEHGSTYGGNPLGCRVAIAALEVLEEENLAENADKLGIILRNELMKLPSDVVTAVRGKGLLNAIVIKETKDWDAWKVCLRLRDNGLLAKPTHGDIIRFAPPLVIKEDELRESIEIINKTILSF
notes: untagged, pET43a, E. coli BL21(DE3)pLysS; DEAE and Superdex 200; tetramer in equilibrium with dimer, dimer is the functional unit
For orientation: Km means the substrate concentration at which the rate is half of its maximum. In general, kcat refers to the maximal rate divided by the concentration of active sites. Take B1: in “purified protein [1]”, the Km is 2.4 ± 0.1 mM and the kcat turned out to be 38.1 ± 0.3 s⁻¹. Further, in “purified protein [2]”, the Km worked out at 5.1 ± 0.3 mM and the catalytic constant (kcat) came to 38.4 ± 0.7 s⁻¹.

The values above are taken from article PMC5432616, “Oligomeric State and Thermal Stability of Apo- and Holo- Human Ornithine δ-Aminotransferase” (The Protein Journal, 2017).
